The results in this text go back to patent US20260085129A1 (ECO ANIMAL HEALTH, published 2026).

Experiment [1] deals with T1, porcine CD163, membrane-bound form on porcine pulmonary alveolar macrophage (pPAM) WT cells (porcine, UniProt Q2VL90 47-1115).
T1 sequence: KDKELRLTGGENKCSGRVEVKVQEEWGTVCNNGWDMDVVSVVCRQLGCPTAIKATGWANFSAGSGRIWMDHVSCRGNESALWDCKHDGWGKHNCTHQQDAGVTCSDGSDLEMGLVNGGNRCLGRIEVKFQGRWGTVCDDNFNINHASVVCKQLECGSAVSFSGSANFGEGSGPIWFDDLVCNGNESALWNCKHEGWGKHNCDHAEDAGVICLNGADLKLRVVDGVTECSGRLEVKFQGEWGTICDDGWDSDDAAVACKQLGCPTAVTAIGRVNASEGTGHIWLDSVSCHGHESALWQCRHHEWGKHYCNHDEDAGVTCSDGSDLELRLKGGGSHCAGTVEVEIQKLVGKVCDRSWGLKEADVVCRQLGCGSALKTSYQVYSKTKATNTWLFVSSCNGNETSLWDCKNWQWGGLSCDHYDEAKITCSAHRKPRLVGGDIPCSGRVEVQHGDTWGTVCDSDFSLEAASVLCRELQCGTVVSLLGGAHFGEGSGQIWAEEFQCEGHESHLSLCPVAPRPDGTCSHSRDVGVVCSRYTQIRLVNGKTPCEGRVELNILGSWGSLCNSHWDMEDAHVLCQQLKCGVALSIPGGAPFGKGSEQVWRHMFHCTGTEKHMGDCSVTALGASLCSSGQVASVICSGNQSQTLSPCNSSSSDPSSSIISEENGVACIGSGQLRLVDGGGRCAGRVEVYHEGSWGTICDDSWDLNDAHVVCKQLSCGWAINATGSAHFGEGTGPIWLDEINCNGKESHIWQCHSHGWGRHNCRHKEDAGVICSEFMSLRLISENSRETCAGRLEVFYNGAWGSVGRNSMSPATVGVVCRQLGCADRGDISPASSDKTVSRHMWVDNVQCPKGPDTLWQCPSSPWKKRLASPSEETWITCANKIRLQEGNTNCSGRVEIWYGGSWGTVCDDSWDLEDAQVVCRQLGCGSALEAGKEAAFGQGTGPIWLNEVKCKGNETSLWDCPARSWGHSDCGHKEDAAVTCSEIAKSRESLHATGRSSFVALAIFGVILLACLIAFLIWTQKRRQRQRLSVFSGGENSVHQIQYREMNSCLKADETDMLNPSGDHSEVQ
Description: cell-based or functional assay.

Experiment [2] concerns the target T1, porcine CD163, membrane-bound form on …. Description: dose-response FACS on pPAM WT cells, anti-FLAG-biotin and streptavidin R-PE detection. As to the method:
Biparatopic and triparatopic antibody constructs in PBS (pH7.4) were diluted in a 3-fold serial dilutions from 150 nM down to 0.023 nM in FACS buffer (0.5% FBS, 0.5 mM EDTA in 1×PBS pH7.4). Biparatopic and triparatopic candidates were incubated with anti-FLAG-Biotin (Sigma, Cat. nr. F9291), for 30 min on ice with shaking. This mixture was added to pPAM WT cells and incubated for 60 min on ice with gentle shaking. Cells were washed 3×with 150 μl/well of FACS buffer and incubated with 50 μl/well of the secondary detection reagent Streptavidin R-P.E. conjugate antibody (Invitrogen, Cat. nr. SA10044) for 30 min on ice with shaking and protected from light. Cells were then washed 3× with 150 μl/well of FACS Buffer and resuspended in 50 μl/well of FACS buffer to be measured on a FACS machine (Attune™ N×T), and a total of 10000 cells were acquired per sample.

Experiment [3] shares this target. The experiment is described as follows: cell-based or functional assay. The source holds these as a separate data set.
The target is the same in experiment [4]. The experiment is described as follows: P.E. FACS screening on pPAM WT cells.
Experiment [5] concerns the target T2, porcine CD163 with deletion of SRCR domain 5, on pPAMΔ5 cells (porcine, UniProt Q2VL90 47-1115).
T2 construct: also called pPAMΔ5 domain cells; pPAMΔ5 WT cells
T2 sequence: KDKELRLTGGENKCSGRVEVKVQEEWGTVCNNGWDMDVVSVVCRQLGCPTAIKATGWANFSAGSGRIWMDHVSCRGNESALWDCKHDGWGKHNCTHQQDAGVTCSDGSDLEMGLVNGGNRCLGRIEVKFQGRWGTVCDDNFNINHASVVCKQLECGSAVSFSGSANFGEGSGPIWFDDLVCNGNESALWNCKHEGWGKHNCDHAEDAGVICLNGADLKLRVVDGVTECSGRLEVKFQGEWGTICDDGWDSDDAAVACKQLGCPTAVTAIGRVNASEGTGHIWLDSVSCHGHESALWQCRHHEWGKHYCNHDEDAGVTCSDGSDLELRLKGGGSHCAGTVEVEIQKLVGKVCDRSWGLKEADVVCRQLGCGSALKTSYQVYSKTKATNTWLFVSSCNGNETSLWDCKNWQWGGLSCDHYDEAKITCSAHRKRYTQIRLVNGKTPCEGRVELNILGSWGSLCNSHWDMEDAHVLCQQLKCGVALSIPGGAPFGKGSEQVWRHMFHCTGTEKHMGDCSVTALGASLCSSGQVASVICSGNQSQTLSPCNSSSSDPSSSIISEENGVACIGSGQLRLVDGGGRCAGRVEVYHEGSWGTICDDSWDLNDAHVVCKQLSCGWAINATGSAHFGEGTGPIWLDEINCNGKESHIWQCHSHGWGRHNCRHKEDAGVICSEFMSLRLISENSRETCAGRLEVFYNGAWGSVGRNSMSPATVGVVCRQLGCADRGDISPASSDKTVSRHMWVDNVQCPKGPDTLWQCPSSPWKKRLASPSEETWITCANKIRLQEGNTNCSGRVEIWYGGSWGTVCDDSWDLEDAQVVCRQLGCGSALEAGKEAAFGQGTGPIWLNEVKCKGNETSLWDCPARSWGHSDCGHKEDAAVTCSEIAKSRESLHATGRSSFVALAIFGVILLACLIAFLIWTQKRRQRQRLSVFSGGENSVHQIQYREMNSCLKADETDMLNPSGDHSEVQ
The experiment is described as follows: P.E. FACS screening on pPAMΔ5 cells.

B1: 03E11 + 03D03 + 17B11 2(G4S) triparatopic VHH construct (bispecific antibody)
chain: QVQLQESGGGLVQVGSSLRLSCVTSGRTPSRYVMGWFRQAPGQEREFVAAISWSGRAPYADSVKGRFTISRDNAKNTVYLQMNSLKPEDTGVYYCAGGEGAIKWTTLDAYDYWGQGTQVTVSSGGGGSGGGGSQLQLVESGGGLVQPGGSLRLSCAASGFTLDDYTIGWFRQAPGKEREGVSCINSITSNTYYADSVKGRFTISRDNAKNTVYLQMNSLTAEDTAIYYCAADSGLFSGSSCLKYRAMRFGSWGQGTQVTVSSGGGGSGGGGSQVQLVESGGGLVQAGGSLRLSCAASGRTFSSYAMGWFRQTPGKDREFVARIGWTGGTTIYADSVKGRFTISRDNAKNTVYLQMNSLKPEDTAVYYCAADQAGWRTAGVRNTYEYDYWGQGTQVTVSS
notes: Triparatopic: three anti-porcine CD163 VHHs in one chain; also called Tri-2; Tri2; not shown: FLAG and His tags
In the case of B1, in experiment [1], the “IC50, PRRSV1 LT3 infection assay, high CD163 porcine serum” value is 2.96 nM and the “IC50, PRRSV1 LT3 infection assay, low CD163 porcine serum” value worked out at 2.81 nM. In addition, in experiment [2], the EC50 came out at 9.1 nM. Besides, in experiment [3], the “IC50, PRRSV2 strain MN184 infection assay, 10% FBS” value is 2.13 nM; the “IC50, PRRSV2 strain NA174 infection assay, high CD163 porcine serum” value amounted to 5.01 nM; the “IC50, PRRSV2 strain NA174 infection assay, low CD163 porcine serum” value is 4.99 nM.

B2: Clone 17-H03D03 VHH antibody (VHH)
VHH: QLQLVESGGGLVQPGGSLRLSCAASGFTLDDYTIGWFRQAPGKEREGVSCINSITSNTYYADSVKGRFTISRDNAKNTVYLQMNSLTAEDTAIYYCAADSGLFSGSSCLKYRAMRFGSWGQGTQVTVSS
notes: Tested as periplasmic extract in ELISA and FACS screening; also called VHH 017 (3D03)
For B2, the binding result in experiment [4] was “binds”; in experiment [5] it was “no binding”.

B3: 17B11 + 03D03 + 03E11 2(G4S) triparatopic VHH construct (bispecific antibody)
chain: QVQLVESGGGLVQAGGSLRLSCAASGRTFSSYAMGWFRQTPGKDREFVARIGWTGGTTIYADSVKGRFTISRDNAKNTVYLQMNSLKPEDTAVYYCAADQAGWRTAGVRNTYEYDYWGQGTQVTVSSGGGGSGGGGSQLQLVESGGGLVQPGGSLRLSCAASGFTLDDYTIGWFRQAPGKEREGVSCINSITSNTYYADSVKGRFTISRDNAKNTVYLQMNSLTAEDTAIYYCAADSGLFSGSSCLKYRAMRFGSWGQGTQVTVSSGGGGSGGGGSQVQLQESGGGLVQVGSSLRLSCVTSGRTPSRYVMGWFRQAPGQEREFVAAISWSGRAPYADSVKGRFTISRDNAKNTVYLQMNSLKPEDTGVYYCAGGEGAIKWTTLDAYDYWGQGTQVTVSS
notes: Triparatopic; not shown: FLAG and His tags
For B3, in experiment [2], the EC50 is 8 nM.

B4: Clone 19-H03E11 VHH antibody (VHH)
VHH: QVQLQESGGGLVQVGSSLRLSCVTSGRTPSRYVMGWFRQAPGQEREFVAAISWSGRAPYADSVKGRFTISRDNAKNTVYLQMNSLKPEDTGVYYCAGGEGAIKWTTLDAYDYWGQGTQVTVSS
notes: Tested as periplasmic extract in ELISA and FACS screening; also called VHH 019 (3E11)
Consider B4, for which the binding result in experiment [4] is reported as “binds”; in experiment [5] it was “no binding”.

B5: 03D03 + 03E11 + 17B11 2(G4S) triparatopic VHH construct (bispecific antibody)
chain: QLQLVESGGGLVQPGGSLRLSCAASGFTLDDYTIGWFRQAPGKEREGVSCINSITSNTYYADSVKGRFTISRDNAKNTVYLQMNSLTAEDTAIYYCAADSGLFSGSSCLKYRAMRFGSWGQGTQVTVSSGGGGSGGGGSQVQLQESGGGLVQVGSSLRLSCVTSGRTPSRYVMGWFRQAPGQEREFVAAISWSGRAPYADSVKGRFTISRDNAKNTVYLQMNSLKPEDTGVYYCAGGEGAIKWTTLDAYDYWGQGTQVTVSSGGGGSGGGGSQVQLVESGGGLVQAGGSLRLSCAASGRTFSSYAMGWFRQTPGKDREFVARIGWTGGTTIYADSVKGRFTISRDNAKNTVYLQMNSLKPEDTAVYYCAADQAGWRTAGVRNTYEYDYWGQGTQVTVSS
notes: as for B3
In the case of B5, in experiment [2], the EC50 was 3.8 nM.

B6: 03D03 + 17B11 + 03E11 2(G4S) triparatopic VHH construct (bispecific antibody)
chain: QLQLVESGGGLVQPGGSLRLSCAASGFTLDDYTIGWFRQAPGKEREGVSCINSITSNTYYADSVKGRFTISRDNAKNTVYLQMNSLTAEDTAIYYCAADSGLFSGSSCLKYRAMRFGSWGQGTQVTVSSGGGGSGGGGSQVQLVESGGGLVQAGGSLRLSCAASGRTFSSYAMGWFRQTPGKDREFVARIGWTGGTTIYADSVKGRFTISRDNAKNTVYLQMNSLKPEDTAVYYCAADQAGWRTAGVRNTYEYDYWGQGTQVTVSSGGGGSGGGGSQVQLQESGGGLVQVGSSLRLSCVTSGRTPSRYVMGWFRQAPGQEREFVAAISWSGRAPYADSVKGRFTISRDNAKNTVYLQMNSLKPEDTGVYYCAGGEGAIKWTTLDAYDYWGQGTQVTVSS
notes: as for B3
With B6, the EC50 in experiment [2] was 13.6 nM.

B7: 17B11 + 03E11 + 03D03 2(G4S) triparatopic VHH construct (bispecific antibody)
chain: QVQLVESGGGLVQAGGSLRLSCAASGRTFSSYAMGWFRQTPGKDREFVARIGWTGGTTIYADSVKGRFTISRDNAKNTVYLQMNSLKPEDTAVYYCAADQAGWRTAGVRNTYEYDYWGQGTQVTVSSGGGGSGGGGSQVQLQESGGGLVQVGSSLRLSCVTSGRTPSRYVMGWFRQAPGQEREFVAAISWSGRAPYADSVKGRFTISRDNAKNTVYLQMNSLKPEDTGVYYCAGGEGAIKWTTLDAYDYWGQGTQVTVSSGGGGSGGGGSQLQLVESGGGLVQPGGSLRLSCAASGFTLDDYTIGWFRQAPGKEREGVSCINSITSNTYYADSVKGRFTISRDNAKNTVYLQMNSLTAEDTAIYYCAADSGLFSGSSCLKYRAMRFGSWGQGTQVTVSS
notes: Triparatopic; also called Tri-10; Triparatopic-10; not shown: FLAG and His tags
As for B7, in experiment [1], the “IC50, PRRSV1 LT3 infection assay, high CD163 porcine serum” value worked out at 4.02 nM and the “IC50, PRRSV1 LT3 infection assay, low CD163 porcine serum” value was determined as 3.41 nM. The molecule also came in with an EC50 in experiment [2] of 11.6 nM. For the same molecule, in experiment [3], the “IC50, PRRSV2 strain MN184 infection assay, 10% FBS” value was 2.84 nM; the “IC50, PRRSV2 strain NA174 infection assay, high CD163 porcine serum” value came out at 7.6 nM; the “IC50, PRRSV2 strain NA174 infection assay, low CD163 porcine serum” value was determined as 3.94 nM.
